Laboratory results as given in the supplement of paper PMC7125110.
± gives the standard error. For part of these data: Fewer inactive variants are shown than the library holds.

B1: glmS ribozyme (parent)
chain: AUAAAAGCGCCAGAACUACAGAAAUGUAGUUGACGAGGAGGAGGUUUAUCGAAUUUUCGGCGGAUGCCUCCAAA

What was measured:
Conditions in all cases: with glucosamine-6-phosphate
glucosamine-6-phosphate [1] = variants of: B1; assay: kcat; higher = faster cleavage; RNA array
Summary of the method: (§1)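 Ribozyme variants carrying barcodes were transcribed in situ on sequenced MiSeq chips by E. coli RNA polymerase and tracked at 37 °C with a hybridised Cy3 probe. They were exposed to 40 μM to 10 mM glucosamine-6-phosphate in HEPES/KCl/Mg(OAc)2 buffer. kobs came from exponential decay fits of normalised per-tile medians, and kcat and KM from weighted Michaelis–Menten fits.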

glucosamine-6-phosphate [2] = variants of: B1; assay: KM; higher = weaker cofactor use; RNA array
Summary of the method: as §1

glucosamine-6-phosphate [3] = variants of: B1; assay: self-cleavage kobs at 40 uM GlcN6P; higher = faster cleavage; RNA array
Summary of the method: as §1

glucosamine-6-phosphate [4] = variants of: B1; assay: self-cleavage kobs at 160 uM GlcN6P; higher = faster cleavage; RNA array
Summary of the method: as §1

glucosamine-6-phosphate [5] = variants of: B1; assay: self-cleavage kobs at 640 uM GlcN6P; higher = faster cleavage; RNA array
Summary of the method: as §1

glucosamine-6-phosphate [6] = variants of: B1; assay: self-cleavage kobs at 10000 uM GlcN6P; higher = faster cleavage; RNA array
Summary of the method: as §1

glucosamine-6-phosphate [7] = variants of: B1; assay: self-cleavage kobs at 2500 uM GlcN6P; higher = faster cleavage; RNA array
Summary of the method: as §1

| Variant | kcat (glucosamine-6-phosphate [1]) [s⁻¹] | KM (glucosamine-6-phosphate [2]) [µM] | self-cleavage kobs at 40 uM GlcN6P (glucosamine-6-phosphate [3]) [s⁻¹] | self-cleavage kobs at 160 uM GlcN6P (glucosamine-6-phosphate [4]) [s⁻¹] | self-cleavage kobs at 640 uM GlcN6P (glucosamine-6-phosphate [5]) [s⁻¹] | self-cleavage kobs at 10000 uM GlcN6P (glucosamine-6-phosphate [6]) [s⁻¹] | self-cleavage kobs at 2500 uM GlcN6P (glucosamine-6-phosphate [7]) [s⁻¹] |
| --- | --- | --- | --- | --- | --- | --- | --- |
| U45A A64G | 0.0186 ± 0.0054 | 600 ± 260 | 0.000998 ± 0.00025 | 0.00526 ± 0.0021 | 0.0143 ± 0.0033 | 0.015 ± 0.004 | – |
| G44C C70U | < 1e-05 | – | < 1e-05 | – | – | – | – |
| G40U U46C U47G | 2.86e-05 ± 4.9e-06 | – | – | – | – | – | – |
| G40U U46A | 0.000471 ± 0.00012 | 2940 ± 1400 | – | – | 6.83e-05 ± 2.4e-05 | 0.000331 ± 7.2e-05 | 0.00028 ± 5.4e-05 |
| U45A A48C | 0.000559 ± 7.1e-05 | 2130 ± 560 | – | – | 0.000131 ± 2.3e-05 | 0.000445 ± 5.6e-05 | 0.000382 ± 8.1e-05 |
| G40U G59A | < 1e-05 | – | – | < 1e-05 | < 1e-05 | – | – |
| U45A U69G | 6.38e-05 ± 2e-05 | – | – | – | 5.46e-05 ± 1.9e-05 | – | 0.000109 ± 3.2e-05 |
| G44A U56G | 0.000224 ± 3.2e-05 | – | – | – | 5.52e-05 ± 2.2e-05 | 0.00019 ± 2.1e-05 | 0.000188 ± 3.9e-05 |
| A42G C50U | 0.000135 ± 1.2e-05 | 5810 ± 1200 | – | – | – | 8.57e-05 ± 1.3e-05 | 3.96e-05 ± 1.9e-05 |
| A42G C50A | 4.52e-05 ± 2.6e-06 | 7070 ± 920 | – | – | – | – | – |
| G43U C70U | 2.12e-05 ± 3.3e-06 | – | < 1e-05 | < 1e-05 | – | – | 2.17e-05 ± 8.6e-06 |
| U45A G66U | 0.00194 ± 0.00019 | 2090 ± 330 | 4.15e-05 ± 1.3e-05 | 0.000117 ± 3.4e-05 | 0.000508 ± 0.0001 | 0.0016 ± 0.00026 | 0.00104 ± 0.00022 |
| U45A C71G | 0.00102 ± 0.00046 | – | 0.000108 ± 2e-05 | 0.00023 ± 8.2e-05 | 0.000442 ± 9.7e-05 | 0.00177 ± 0.00039 | 0.00123 ± 0.00059 |
| G41A U54G | 0.000873 ± 0.00013 | 336 ± 90 | 9.13e-05 ± 1.9e-05 | – | 0.00057 ± 0.00021 | 0.000661 ± 0.00021 | 0.000898 ± 0.00016 |
| G41C U45G G66C | 4.62e-05 ± 1e-05 | – | – | – | – | 2.84e-05 ± 1.2e-05 | – |
| U45A A53G | 0.0342 ± 0.011 | 692 ± 270 | 0.002 ± 0.00022 | 0.00536 ± 0.0026 | 0.0131 ± 0.0026 | 0.0473 ± 0.012 | – |
| U45G A48U | 0.000351 ± 8.1e-05 | 3040 ± 1200 | – | – | 5.51e-05 ± 1.4e-05 | 0.000246 ± 5.7e-05 | 0.000209 ± 4.5e-05 |

| Variant | kcat (glucosamine-6-phosphate [1]) [s⁻¹] | KM (glucosamine-6-phosphate [2]) [µM] | self-cleavage kobs at 40 uM GlcN6P (glucosamine-6-phosphate [3]) [s⁻¹] | self-cleavage kobs at 160 uM GlcN6P (glucosamine-6-phosphate [4]) [s⁻¹] | self-cleavage kobs at 640 uM GlcN6P (glucosamine-6-phosphate [5]) [s⁻¹] | self-cleavage kobs at 10000 uM GlcN6P (glucosamine-6-phosphate [6]) [s⁻¹] | self-cleavage kobs at 2500 uM GlcN6P (glucosamine-6-phosphate [7]) [s⁻¹] |
| --- | --- | --- | --- | --- | --- | --- | --- |
| U45C U49C G66U | < 1e-05 | – | – | – | – | < 1e-05 | < 1e-05 |
| A42G C71U | 0.0155 ± 0.0039 | 732 ± 250 | 0.000864 ± 0.0001 | 0.00294 ± 0.00058 | 0.0053 ± 0.0011 | 0.0178 ± 0.0034 | 0.0147 ± 0.0047 |
| G40U U49G C71G | 0.000114 ± 2.6e-05 | – | – | – | – | 9.53e-05 ± 1.8e-05 | 8.01e-05 ± 2.8e-05 |
| G44A U65A | 0.000154 ± 9.6e-06 | 828 ± 240 | – | – | 6.51e-05 ± 2.8e-05 | 0.000139 ± 2e-05 | 0.000133 ± 3.6e-05 |
| G44A C67G | 0.000462 ± 7e-05 | 1700 ± 580 | – | 2.41e-05 ± 1e-05 | 0.000128 ± 1.5e-05 | 0.000371 ± 3e-05 | 0.000355 ± 3.8e-05 |
| A42U U46A | 0.000165 ± 3.2e-05 | 4410 ± 1900 | – | – | – | 0.000112 ± 1.7e-05 | 7.32e-05 ± 1.7e-05 |
| A42U U46G | 5.79e-05 ± 3.4e-06 | 901 ± 260 | – | – | 2.81e-05 ± 1.4e-05 | 5.41e-05 ± 8.3e-06 | 3.86e-05 ± 1.2e-05 |
| G43A C67G | 0.00156 ± 0.00014 | 2110 ± 290 | 2.87e-05 ± 6.8e-06 | 0.000114 ± 1.3e-05 | 0.000321 ± 5.4e-05 | 0.00126 ± 0.00013 | 0.000994 ± 0.00015 |
| G43U C67G | 0.00171 ± 0.00015 | 1020 ± 150 | 7.18e-05 ± 1e-05 | 0.00022 ± 6e-05 | 0.000597 ± 8.6e-05 | 0.00166 ± 0.00022 | 0.00117 ± 0.0002 |
| A42G G43A | 0.000155 ± 2.1e-05 | 1440 ± 500 | < 1e-05 | – | 5.32e-05 ± 1.5e-05 | 0.000143 ± 2.8e-05 | 8.7e-05 ± 2.3e-05 |
| A42G U57A | 0.000299 ± 4.6e-05 | – | < 1e-05 | – | 0.000118 ± 3.7e-05 | 0.000266 ± 4.4e-05 | 0.000351 ± 0.00012 |
| G41A U46G C70U | 0.00726 ± 0.0013 | 620 ± 170 | 0.000436 ± 0.0001 | – | 0.00452 ± 0.0018 | 0.00749 ± 0.002 | – |
| G44U U57G | < 1e-05 | – | < 1e-05 | < 1e-05 | – | < 1e-05 | < 1e-05 |
| G44C A52G | < 1e-05 | 279 ± 110 | < 1e-05 | < 1e-05 | < 1e-05 | – | – |
| A42G G66A U69A | 0.0145 ± 0.0037 | 1590 ± 490 | 0.000356 ± 0.0001 | – | – | 0.0125 ± 0.0052 | – |
| G43U U49C | < 1e-05 | – | < 1e-05 | < 1e-05 | < 1e-05 | – | < 1e-05 |
